What was measured:
[1] = target: the molecule itself; experiment: MST
[2] = target: the molecule itself; experiment: SEC-MALS
[3] = target: the molecule itself; experiment: mass photometry
[4] = target: PdeL;Cra (Escherichia coli;Escherichia coli, UniProt P21514;P0ACP1 1-362;1-334, |); experiment: EMSA
[5] = target: Cra (Escherichia coli, UniProt P0ACP1 1-334); experiment: EMSA
Cra, sequence (P0ACP1 whole entry): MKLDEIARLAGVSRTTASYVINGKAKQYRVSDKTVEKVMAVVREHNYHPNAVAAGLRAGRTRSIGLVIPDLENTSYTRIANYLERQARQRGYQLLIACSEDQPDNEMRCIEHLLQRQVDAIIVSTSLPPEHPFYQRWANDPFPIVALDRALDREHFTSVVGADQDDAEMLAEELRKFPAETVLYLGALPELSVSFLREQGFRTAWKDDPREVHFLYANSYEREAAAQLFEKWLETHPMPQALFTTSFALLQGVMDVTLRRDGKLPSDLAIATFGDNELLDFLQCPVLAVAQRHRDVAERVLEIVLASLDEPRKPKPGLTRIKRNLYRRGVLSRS

PdeL;Cra, sequence (P0ACP1 whole entry, chain 2 of 2, one chain of several): as the sequence (P0ACP1 whole entry) above

| Binder | Kd [1] [nM] | stoichiometry N [2] | stoichiometry N [3] | Kd [4] [nM] | Kd [5] [nM] |
| --- | --- | --- | --- | --- | --- |
| PdeL, full-length c-di-GMP phosphodiesterase and transcription factor of E. coli (enzyme, UniProt P21514 1-362, looked up) MNSCDFRVFLQEFGTTVHLSLPGSVSEKERLLLKLLMQGMSVTEISQYRNRSAKTISHQKKQLFEKLGIQSDITFWRDIFFQYNPEIISATGSNSHRYINDNHYHHIVTPEAISLALENHEFKPWIQPVFCAQTGVLTGCEVLVRWEHPQTGIIPPDQFIPLAESSGLIVIMTRQLMKQTADILMPVKHLLPDNFHIGINVSAGCFLAAGFEKECLNLVNKLGNDKIKLVLELTERNPIPVTPEARAIFDSLHQHNITFALDDFGTGYATYRYLQAFPVDFIKIDKSFVQMASVDEISGHIVDNIVELARKPGLSIVAEGVETQEQADLMIGKGVHFLQGYLYSPPVPGNKFISEWVMKAGG | 9000 | 4 | 2 |  |  |
| PdeL L168R, tetramerization-deficient variant (enzyme, E. coli) NSCDFRVFLQEFGTTVHLSLPGSVSEKERLLLKLLMQGMSVTEISQYRNRSAKTISHQKKQLFEKLGIQSDITFWRDIFFQYNPEIISATGSNSHRYINDNHYHHIVTPEAISLALENHEFKPWIQPVFCAQTGVLTGCEVLVRWEHPQTGIIPPDQFIPLAESSGRIVIMTRQLMKQTADILMPVKHLLPDNFHIGINVSAGCFLAAGFEKECLNLVNKLGNDKIKLVLELTERNPIPVTPEARAIFDSLHQHNITFALDDFGTGYATYRYLQAFPVDFIKIDKSFVQMASVDEISGHIVDNIVELARKPGLSIVAEGVETQEQADLMIGKGVHFLQGYLYSPPVPGNKFISEWVMKAGG |  | 2 |  |  |  |
| CB CDB oligo (4695/4696) (dsDNA) DNA 1: TGCTGAATGGATTCAGTCTTAATGAGTGGG DNA 2: CCCACTCATTAAGACTGAATCCATTCAGCA |  |  |  | 76 | 49 |
